Measurements taken from US20200087400A1 (EUREKA THERAPEUTICS, published 2020).

What was measured:
Bio-P19 member A2E-1 = target: T1, Bio-P19 member A2E-1 (chain 2: C-terminal BirA substrate peptide (BSP), enzymatically biotinylated; its letters are not printed in the patent and it is left out); experiment: phage ELISA, streptavidin plate, anti-M13-HRP
T1 construct: also called biotinylated control peptide A2E-1/HLA-A*02:01 monomer
Protocol: (§1) Individual phage clones from enriched phage display panning pools against PSA146/HLA-A*02:01 complex were incubated in the coated plates. Binding of the phage clones was detected by HRP-conjugated anti-M13 antibodies and developed using HRP substrate. The absorbance was read at 450 nm. […] Then, unique antibody clones were identified through DNA sequencing of ELISA-positive clones. […] T2 cells loaded with different peptides and β2M were first stained with purified scFv phage clones, followed by staining with a mouse anti-M13 mAb, and finally R-PE conjugated horse anti-mouse IgG from Vector Labs. Each step of the staining was performed for between 30-60 minutes on ice and the cells were washed twice between stainings. All 16 clones recognized PSA146-loaded T2 cells specifically. FIG. 3 provides examples of PSA146/HLA-A*02:01 specific phage clone binding to peptide-loaded T2 cells through FACS.

Bio-P19 member A2E-10 = target: T2, Bio-P19 member A2E-10 (chain 2: C-terminal BirA substrate peptide (BSP), enzymatically biotinylated; its letters are not printed in the patent and it is left out); experiment: phage ELISA, streptavidin plate, anti-M13-HRP
T2 construct: also called biotinylated control peptide A2E-10/HLA-A*02:01 monomer
Protocol: as §1

Bio-P19 member A2E-11 = target: T3, Bio-P19 member A2E-11 (chain 2: C-terminal BirA substrate peptide (BSP), enzymatically biotinylated; its letters are not printed in the patent and it is left out); experiment: phage ELISA, streptavidin plate, anti-M13-HRP
T3 construct: also called biotinylated control peptide A2E-11/HLA-A*02:01 monomer
Protocol: as §1

Bio-P19 member A2E-13 = target: T4, Bio-P19 member A2E-13 (chain 2: C-terminal BirA substrate peptide (BSP), enzymatically biotinylated; its letters are not printed in the patent and it is left out); experiment: phage ELISA, streptavidin plate, anti-M13-HRP
T4 construct: also called biotinylated control peptide A2E-13/HLA-A*02:01 monomer
Protocol: as §1

Bio-P19 member A2E-14 = target: T5, Bio-P19 member A2E-14 (chain 2: C-terminal BirA substrate peptide (BSP), enzymatically biotinylated; its letters are not printed in the patent and it is left out); experiment: phage ELISA, streptavidin plate, anti-M13-HRP
T5 construct: also called biotinylated control peptide A2E-14/HLA-A*02:01 monomer
Protocol: as §1

Bio-P19 member A2E-15 = target: T6, Bio-P19 member A2E-15 (chain 2: C-terminal BirA substrate peptide (BSP), enzymatically biotinylated; its letters are not printed in the patent and it is left out); experiment: phage ELISA, streptavidin plate, anti-M13-HRP
T6 construct: also called biotinylated control peptide A2E-15/HLA-A*02:01 monomer
Protocol: as §1

Bio-P19 member A2E-16 = target: T7, Bio-P19 member A2E-16 (chain 2: C-terminal BirA substrate peptide (BSP), enzymatically biotinylated; its letters are not printed in the patent and it is left out); experiment: phage ELISA, streptavidin plate, anti-M13-HRP
T7 construct: also called biotinylated control peptide A2E-16/HLA-A*02:01 monomer
Protocol: as §1

Bio-P19 member A2E-17 = target: T8, Bio-P19 member A2E-17 (chain 2: C-terminal BirA substrate peptide (BSP), enzymatically biotinylated; its letters are not printed in the patent and it is left out); experiment: phage ELISA, streptavidin plate, anti-M13-HRP
T8 construct: also called biotinylated control peptide A2E-17/HLA-A*02:01 monomer
Protocol: as §1

Bio-P19 member A2E-19 = target: T9, Bio-P19 member A2E-19 (chain 2 carries a C-terminal BirA substrate peptide (BSP), enzymatically biotinylated; the BSP letters are not given in the patent and are left out); experiment: phage ELISA, streptavidin plate, anti-M13-HRP
T9 construct: also called biotinylated control peptide A2E-19/HLA-A*02:01 monomer
Protocol: as §1

Bio-P19 member A2E-21 = target: T10, Bio-P19 member A2E-21 (chain 2 carries a C-terminal BirA substrate peptide (BSP), enzymatically biotinylated; the BSP letters are not given in the patent and are left out); experiment: phage ELISA, streptavidin plate, anti-M13-HRP
T10 construct: also called biotinylated control peptide A2E-21/HLA-A*02:01 monomer
Protocol: as §1

Bio-P19 member A2E-4 = target: T11, Bio-P19 member A2E-4 (chain 2 carries a C-terminal BirA substrate peptide (BSP), enzymatically biotinylated; the BSP letters are not given in the patent and are left out); experiment: phage ELISA, streptavidin plate, anti-M13-HRP
T11 construct: also called biotinylated control peptide A2E-4/HLA-A*02:01 monomer
Protocol: as §1

Bio-P19 member A2E-5 = target: T12, Bio-P19 member A2E-5 (chain 2 carries a C-terminal BirA substrate peptide (BSP), enzymatically biotinylated; the BSP letters are not given in the patent and are left out); experiment: phage ELISA, streptavidin plate, anti-M13-HRP
T12 construct: also called biotinylated control peptide A2E-5/HLA-A*02:01 monomer
Protocol: as §1

Bio-P19 member A2E-6 = target: T13, Bio-P19 member A2E-6 (chain 2 carries a C-terminal BirA substrate peptide (BSP), enzymatically biotinylated; the BSP letters are not given in the patent and are left out); experiment: phage ELISA, streptavidin plate, anti-M13-HRP
T13 construct: also called biotinylated control peptide A2E-6/HLA-A*02:01 monomer
Protocol: as §1

Bio-P19 member A2E-7 = target: T14, Bio-P19 member A2E-7 (chain 2 (heavy): C-terminal BirA substrate peptide, biotinylated there by BirA; tag letters not given, left out); experiment: phage ELISA, streptavidin plate, anti-M13-HRP
T14 construct: also called biotinylated control peptide A2E-7/HLA-A*02:01 monomer; not shown: BirA substrate peptide (BSP) tag at the C-terminus of the heavy chain
Protocol: as §1

Bio-P19 member A2E-8 = target: T15, Bio-P19 member A2E-8 (chain 2 (heavy): C-terminal BirA substrate peptide, biotinylated there by BirA; tag letters not given, left out); experiment: phage ELISA, streptavidin plate, anti-M13-HRP
T15 construct: also called biotinylated control peptide A2E-8/HLA-A*02:01 monomer; not shown: BirA substrate peptide (BSP) tag at the C-terminus of the heavy chain
Protocol: as §1

Bio-P19 member A2E-9 = target: T16, Bio-P19 member A2E-9 (chain 2 (heavy): C-terminal BirA substrate peptide, biotinylated there by BirA; tag letters not given, left out); experiment: phage ELISA, streptavidin plate, anti-M13-HRP
T16 construct: also called biotinylated control peptide A2E-9/HLA-A*02:01 monomer; not shown: BirA substrate peptide (BSP) tag at the C-terminus of the heavy chain
Protocol: as §1

[1] = target: T17, HLA-A*02:01 on T2 cells with no peptide loaded (human); experiment: flow cytometry, phage on T2 cells, anti-M13 + R-PE anti-mouse IgG
T17 construct: TAP-deficient T2 cells, no peptide loaded from outside; also called T2 cells without peptide loading
Protocol: as §1

Measured: binding result

B1: PSA146/HLA-A*02:01-specific scFv phage clone #18 (scFv, V domains shown)
VH: QVQLVQSGAEVKKPGESLKISCKGSGYSFTSYWIGWVRQMPGKGLEWMGIIYPGDSDTRYSPSFQGQVTISADKSISTAYLQWSSLKASDTAMYYCARWGSRGFLDAFDIWGQGTMVTVSS
VL: QSVVTQPPSVSAAPGQRVTISCSGSSSNIGNNYVSWYQQLPGAAPRLLIYDNDKRPSGIPDRFSGSKSGTSATLGITGLQTGDEADYYCGTWDSSLSSGVFGGGTKLTVLG
no binding: all assays above
